This test concerns the target SARS-CoV-2 Spike glycoprotein (SARS-CoV-2) (UniProt P0DTC2). Kind of test: SPR. (In general: SPR reads the build-up and loss of mass on a sensor chip optically.)

Substance “L-SIGN entire extracellular domain (ECD) (from UniProt Q9H2X3 71-399) (receptor)” yielded an SPR response without ligand (the pair that is blocked) of 2000 RU.
With “DC-SIGN entire extracellular domain (ECD) (from UniProt Q9NNX6 59-404) (receptor)” the figure was 2500 RU.

(Values after PMC11376147 (Chemical Science, 2024).)
